These results are taken from US20240150805A1, “Glycosylated Opioids” (River Stone Biotech ApS, priority 2021, published 2024).

Test [1] in a line: In vitro glucosylation of oripavine and nororipavine by purified UGTs. Format: biochemical. The following applies: purified UGT, 500 μM substrate, overnight at 30° C., HPLC. The procedure: Glucosylation samples of a 20 μL total reaction volume for each UGT to be tested were prepared in 96-well microtiter plates as follows:
The microtiter plate was sealed with an adhesive seal, spun shortly and the glucosylation samples were incubated overnight at 30° C. After incubation, glucosylation reaction was terminated by adding 3 volumes (60 μL) of ice-cold 100% methanol the reaction volume and mixing well, followed by centrifugation of the plate at 3000 rpm for 5 min at 4° C. and analysis by HPLC.
The 72UGTs of Table 5 were tested in vitro to using the test setup of example 3 identify those having having specificity toward nororipavine.

A short description of test [2]: Test of additional UGT (SEQ ID NO: 170) in yeast fed with oripavine. Format: cell-based, Saccharomyces cerevisiae. The following applies: Delft pH 5.5 media, 2 mM oripavine, 3 days, 30 degrees Celsius. As for the experimental part: An additional UGT (SEQ ID NO: 170) with 62% identity at the protein level to SEQ ID NO: 96 was also tested in a similar manner as above. Briefly, cells were grown overnight in SC-HLU and used to inoculate Delft pH 5.5 media containing 2 mM oripavine. After growth with shaking at 30 degrees Celsius for 3 days, total extracts were obtained by mixing the cultures with an equal volume of 0.2% formic acid and heating at 80 degrees Celsius for 10 minutes. After centrifugation, the supernatant was diluted in 0.1% formic acid for quantification by HPLC as described in the Materials and Methods. UGT SEQ ID NO: 170 was active for glucosylation on both oripavine and nororipavine however it produced 41% of the noropavine-glu relative to SEQ ID NO: 96 and 35% of oripavine-glu relative to SEQ ID NO: 96.

A short description of test [3]: Effect of N-terminal tags on UGT activity in yeast bioconversion of oripavine. Format: cell-based, Saccharomyces cerevisiae. The following applies: UGT with solubility tag.

B1: PWA70520: subfamily 71 UGT (protein, listed as Artemisia annua)
chain: MTTLELVFIPSPGAGHLPPTVELAKLLLDHDQRLSVTIIIMNLPFEAEQVTETPISTPRLNFIYVANEDSSKDLISPHTFMSAFLEHQKPKLKNIIRDITESDSVRLVGFIVDMFCIAMIDVANEFGVPTYVYFTSSASALGLMFHLQAKCDDEEYDVTDLKDSDLMLSIPSYVKPIPAKLLPSVLFDKQGGSKMFIDLAKKFRESEGIIINSFQELESHGLEFLIKGDPNIPPVFPVGPILNLKNTKNDGKTTDIMAWLDNQPKSSVVFLCFGSMGSFGEKQVKEIAVALERSEHRFLWSLRRPPSKEVMRLPEEYENFKEVLPEGFLECTSNLGKVIGWAPQTSVLSHPSLGGFVSHCGWNSTLESIWFGVPVAAWPLYAEQQINAFQLVMELGIAAEIKIDYKSNIGPGGGSNEMLVKADEIESGIRRLMNDDDMRRNVKEMKHMSRLTVTEGGSSYASIKRFIELVITNT
Take B1: the “preference for nororipavine glucosylation compared to oripavine glucosylation” value in test [1] is on record as “preference for glucosylation of nororipavine”.

B2: SEQ ID NO: 170: additional UGT with 62% identity at the protein level to SEQ ID NO: 96 (protein)
chain: MEQTPHIAIMPTQGMGHLIPLVEFAKRLVLTHNFSATFLIPTDPGRLPAAQKSFLDSLPAGINYVLLPPVNFDDLPDDVGSETRISLAVVRSLPSLRDALKSLVSGFRVVALVVDLFGTDAFDVAAEFNVSPYIFYPSTAMALSLFLHLPKLDESVSCEYRDLPEPVQIPGCIPVHGKDLLDPVQDRKNGAYKWLLHQVKRYRLAEGIMVNSFKELEGGAIKALQEEEPGKPPVYPIGPLVQMDGADEKSECLRWLDDQPRGSVLFVSFGSGGTLSYDQLNELALGLEMSEQRFLWVVRSPNNKSANATYFSVNSQNDPFAFLPKGFLERTKGYGLVVPSWAPQVRVLSHGSTGGFLTHCGWNSTLESVVNGVPLIAWPFYAEQKMNAVMLTEDLKVALRLRIGENGIIGRAEIAKVVKGLMEGEEGKQIRSRMIDLKDAAARALGEDGDSTKSLAELAQKWKNKIIS
On to B2, for which, in test [2], the “noropavine-glu produced relative to SEQ ID NO: 96” value is reported as 41% and the “oripavine-glu produced relative to SEQ ID NO: 96” value is recorded as 35%.

B3: SEQ ID NO: 204: UGT fused N-terminally to a solubility tag (protein)
chain: MKAQYEDGKQYTTLEKPVAGAPQVLEFFSFFCPHCYQFEEVLHISDNVKKKLPEGVKMTKYHVNFMGGDLGKDLTQAWAVAMALGVEDKVTVPLFEGVQKTQTIRSASDIRDVFINAGIKGEEYDAAWNSFVVKSLVAQQEKAAADVQLRGVPAMFVNGKYQLNPQGMDTSNMDVFVQQYADTVKYLSEKKGGGGSEQKPHIALLPSPGMGHLIPLVEFAKQFVLHHDFHITCIIPVLGSPSKAMKAVLQALPTTIDHVFLPPVILEEEEIKGLKFEVQTILTLTRSLPPLREVLKTTRFSAFVVDPFGIDALDIAKELNISPYIFFPSNAFALSLIFHLPKLDETVSCEYRDLPEPLKLPGCIPIHGRDLIEPVQDRTSELYKMFLRNAKRFRLAEGIIVNTFMELEGSAIKALLDEEAKNLPLYPIGPIQSGSSNLQVDKSVSDCLRWLDNQPHGSVLFVCFGSGGTLSYDQTNELALGLELSGQKFLWVVRTPNNESADAAYLSDQILDNNPLDFLPKGFVERTEGQGLAVPSWAPQAQVLSHGSTGGFLTHCGWNSTLESIMQGIPLIAWPLYAEQKMNAPLLAEDLKVALRPKTNKSGLIDQEEIAKVVKGLMIGEEGKKVYNRMKDIKMAAEKALSADGSSTKALSELASQWKNHPGF
Take B3: the “amounts of glucosylated nororipavine compared to the untagged UGT alone” value (shortened to “amounts … compared to the untagged UGT alone”) in test [3] was “higher”.

B4: SEQ ID NO: 212: UGT fused N-terminally to a solubility tag (protein)
chain: METHINLKVSDGSSEIFFKIKKTTPLRRLMEAFAKRQGKEMDSLRFLYDGIRIQADQTPEDLDMEDNDIIEAHREQIGGGGGGSEQKPHIALLPSPGMGHLIPLVEFAKQFVLHHDFHITCIIPVLGSPSKAMKAVLQALPTTIDHVFLPPVILEEEEIKGLKFEVQTILTLTRSLPPLREVLKTTRFSAFVVDPFGIDALDIAKELNISPYIFFPSNAFALSLIFHLPKLDETVSCEYRDLPEPLKLPGCIPIHGRDLIEPVQDRTSELYKMFLRNAKRFRLAEGIIVNTFMELEGSAIKALLDEEAKNLPLYPIGPIQSGSSNLQVDKSVSDCLRWLDNQPHGSVLFVCFGSGGTLSYDQTNELALGLELSGQKFLWVVRTPNNESADAAYLSDQILDNNPLDFLPKGFVERTEGQGLAVPSWAPQAQVLSHGSTGGFLTHCGWNSTLESIMQGIPLIAWPLYAEQKMNAPLLAEDLKVALRPKTNKSGLIDQEEIAKVVKGLMIGEEGKKVYNRMKDIKMAAEKALSADGSSTKALSELASQWKNHPGF
Turning to B4, in test [3], the “amounts … compared to the untagged UGT alone” value was “higher”.

B5: XP_023914549: subfamily 72 UGT, sequence homolog of Qs72S_1 (protein)
chain: MEQKPHIALLPSPGMGHLIPLVEFAKQFVLHHDFRITCIVPVLGSPSKAMKAVLQALPTTIDHVFLPPVKLEEEEIRGLKFEVQTILTLTRSLPPLREVLKSTRFSAFVVDPFGIDALDIAKELNISPYIFFPTNAFALSLIFHLPKLDKTVSCEYRDLPEPLKLPGCIPIHGRDLSEPVQDRTSELYKMFLRNAKRFRLAEGIIVNTFMELERSAIKALLDEEAKNLPLYPIGPIQSGSSNQVDKSESDCLRWLENQPHGSVLFVCFGSGGTLSYDQTNELALGLELSGQKFLWVVRTPNNESADAAYLSDQTLDNNPLAFLPKGFVERTEGQGLAVPSWAPQAQVLSHGSTGGFLTHCGWNSILESVMQGIPLIAWPLYAEQKMNAVLLAEDLKVALRPKTNKNGLIDREEIAKVVKGLMVGEEGKKVRNRMKDIKIAAVKALSADGSSTKALSELASQWKNHPGF
modifications: Quercus suber
In the case of B5, the “preference for nororipavine glucosylation compared to oripavine glucosylation” value in test [1] is reported as “particularly strong preference for Nororipavine glucosylation”.

B6: SEQ ID NO: 214: UGT fused N-terminally to a solubility tag (protein)
chain: METHINLKVSDGSSEIFFKIKKTTPLRRLMEAFAKRQGKEMDSLRFLYDGIRIQADQTPEDLDMEDNDIIEAHREQIGGGGGGSGGGGSGGGGSEQKPHIALLPSPGMGHLIPLVEFAKQFVLHHDFHITCIIPVLGSPSKAMKAVLQALPTTIDHVFLPPVILEEEEIKGLKFEVQTILTLTRSLPPLREVLKTTRFSAFVVDPFGIDALDIAKELNISPYIFFPSNAFALSLIFHLPKLDETVSCEYRDLPEPLKLPGCIPIHGRDLIEPVQDRTSELYKMFLRNAKRFRLAEGIIVNTFMELEGSAIKALLDEEAKNLPLYPIGPIQSGSSNLQVDKSVSDCLRWLDNQPHGSVLFVCFGSGGTLSYDQTNELALGLELSGQKFLWVVRTPNNESADAAYLSDQILDNNPLDFLPKGFVERTEGQGLAVPSWAPQAQVLSHGSTGGFLTHCGWNSTLESIMQGIPLIAWPLYAEQKMNAPLLAEDLKVALRPKTNKSGLIDQEEIAKVVKGLMIGEEGKKVYNRMKDIKMAAEKALSADGSSTKALSELASQWKNHPGF
For the molecule B6, the “amounts … compared to the untagged UGT alone” value in test [3] is reported as “higher”.
